Test [1] concerns the target T1, L1 (DV1-GV4), recombinant soluble human Vδ1/Vγ4 γδ TCR heterodimer (human).
T1 construct: Biotinylated in the DELFIA ranking assay; also called human TRDV1; human Vδ1 antigen
The test is described as follows: SPR.

Test [2] addresses T2, human EGFR, recombinant protein (human, UniProt P00533 25-645).
T2 construct: Bought protein; also called human EGFR antigen
Kind of test: SPR. For orientation: SPR reads the build-up and loss of mass on a sensor chip optically.

T1 sequence (main, as listed by the source): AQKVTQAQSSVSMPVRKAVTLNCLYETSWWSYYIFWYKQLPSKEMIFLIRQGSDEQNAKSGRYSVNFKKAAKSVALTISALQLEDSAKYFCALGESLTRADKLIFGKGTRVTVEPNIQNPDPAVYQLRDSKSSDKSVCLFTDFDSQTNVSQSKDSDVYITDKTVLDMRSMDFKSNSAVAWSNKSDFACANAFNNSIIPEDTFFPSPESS

B1: ADT1-4/ADT3-1 (bispecific antibody, human IgG1, V domains shown)
VH: QVQLQQSGPGLVKPSQTLSLTCAISGDSVSSKSAAWNWIRQSPSRGLEWLGRTYYRSKWSTDYAASVKSRITINPDTSKNQLSLQLNSVTPEDTAVYYCARTWSGYVDVWGQGTLVTVSS
VL: DIQMTQSPPALSASVGDRVTITCRASQDINDWLAWYQHKPGKAPKLLIYDASSLESGVPSRFSGSGSGTEFTLTISSLQPDDFATYYCQQSYSTPQVTFGQGTRLEIKR
notes: mAb2; also called G04 × FS1-67; G04 FS1-67
B1: the Kd (usually the equilibrium constant for the complex coming apart) in test [1] was 152 nM; in test [2], 1.14 nM.

B2: ADT1-4-2/ADT3-6 (bispecific antibody)
heavy: EVQLQQSGPGLVKPSQTLSLTCAISGDSVSSKSAAWNWIRQSPSRGLEWLGRTYYRSKWSTDYAASVKSRITINPDTSKNQLSLQLNSVTPEDTAVYYCARTWVGYVDRWGQGTLVTVSSASTKGPSVFPLAPSSKSTSGGTAALGCLVKDYFPEPVTVSWNSGALTSGVHTFPAVLQSSGLYSLSSVVTVPSSSLGTQTYICNVNHKPSNTKVDKKVEPKSCDKTHTCPPCPAPELAGAPSVFLFPPKPKDTLMISRTPEVTCVVVDVSHEDPEVKFNWYVDGVEVHNAKTKPREEQYNSTYRVVSVLTVLHQDWLNGKEYKCKVSNKALPAPIEKTISKAKGQPREPQVYTLPPSRDELEEGPVSLTCLVKGFYPSDIAVEWESNGQPENNYKTTPPVLDSDGSFFLYSKLTVSYWRWYKGNVFSCSVMHEALHNHYTQKSLSLSPG
light: DIQMTQSPPALSASVGDRVTITCRASQDINDWLAWYQHKPGKAPKLLIYDASSLESGVPLRFSGSGSGTEFTLTISSLQPDDFATYYCQQKYSAPQVTFGQGTRLEIKRTVAAPSVFIFPPSDEQLKSGTASVVCLLNNFYPREAKVQWKVDNALQSGNSQESVTEQDSKDSTYSLSSTLTLSKADYEKHKVYACEVTHQGLSSPVTKSFNRGEC
notes: mAb2; also called ADT1-4-2xLEE2
Take B2: the Kd came to 0.818 nM in test [1] and 19.2 nM in test [2].

B3: ADT1-4-2/ADT3-1 (bispecific antibody)
heavy: EVQLQQSGPGLVKPSQTLSLTCAISGDSVSSKSAAWNWIRQSPSRGLEWLGRTYYRSKWSTDYAASVKSRITINPDTSKNQLSLQLNSVTPEDTAVYYCARTWVGYVDRWGQGTLVTVSSASTKGPSVFPLAPSSKSTSGGTAALGCLVKDYFPEPVTVSWNSGALTSGVHTFPAVLQSSGLYSLSSVVTVPSSSLGTQTYICNVNHKPSNTKVDKKVEPKSCDKTHTCPPCPAPELAGAPSVFLFPPKPKDTLMISRTPEVTCVVVDVSHEDPEVKFNWYVDGVEVHNAKTKPREEQYNSTYRVVSVLTVLHQDWLNGKEYKCKVSNKALPAPIEKTISKAKGQPREPQVYTLPPSRDETDDGPVSLTCLVKGFYPSDIAVEWESTYGPENNYKTTPPVLDSDGSFFLYSKLTVSYWRWYKGNVFSCSVMHEALHNHYTQKSLSLSPG
light: DIQMTQSPPALSASVGDRVTITCRASQDINDWLAWYQHKPGKAPKLLIYDASSLESGVPLRFSGSGSGTEFTLTISSLQPDDFATYYCQQKYSAPQVTFGQGTRLEIKRTVAAPSVFIFPPSDEQLKSGTASVVCLLNNFYPREAKVQWKVDNALQSGNSQESVTEQDSKDSTYSLSSTLTLSKADYEKHKVYACEVTHQGLSSPVTKSFNRGEC
notes: mAb2; also called ADT1-4-2xFS1-67
B3: the Kd in test [1] turned out to be 0.378 nM; in test [2], 1.37 nM.

B4: ADT1-4-2/ADT3-4 (bispecific antibody)
heavy: EVQLQQSGPGLVKPSQTLSLTCAISGDSVSSKSAAWNWIRQSPSRGLEWLGRTYYRSKWSTDYAASVKSRITINPDTSKNQLSLQLNSVTPEDTAVYYCARTWVGYVDRWGQGTLVTVSSASTKGPSVFPLAPSSKSTSGGTAALGCLVKDYFPEPVTVSWNSGALTSGVHTFPAVLQSSGLYSLSSVVTVPSSSLGTQTYICNVNHKPSNTKVDKKVEPKSCDKTHTCPPCPAPELAGAPSVFLFPPKPKDTLMISRTPEVTCVVVDVSHEDPEVKFNWYVDGVEVHNAKTKPREEQYNSTYRVVSVLTVLHQDWLNGKEYKCKVSNKALPAPIEKTISKAKGQPREPQVYTLPPSRDETESGPVSLTCLVKGFYPSDIVVEWESKFGPENNYKTTPPVLDSDGSFFLYSKLTVSNLRWTKGHVFSCSVMHEALHNHYTQKSLSLSPG
light: DIQMTQSPPALSASVGDRVTITCRASQDINDWLAWYQHKPGKAPKLLIYDASSLESGVPLRFSGSGSGTEFTLTISSLQPDDFATYYCQQKYSAPQVTFGQGTRLEIKRTVAAPSVFIFPPSDEQLKSGTASVVCLLNNFYPREAKVQWKVDNALQSGNSQESVTEQDSKDSTYSLSSTLTLSKADYEKHKVYACEVTHQGLSSPVTKSFNRGEC
notes: mAb2; also called ADT1-4-2x747
Take B4: the values for the Kd in test [1] and in test [2] were 0.511 nM and 2.35 nM, respectively.

These data come from patent publication US20240132599A1 (GAMMADELTA THERAPEUTICS, published 2024).
